Source: patent US20150368323A1 (MorphoSys, published 2015)
Ends that are not written are not given here.

T1: MprF protein of Staphylococcus aureus (Staphylococcus aureus, UniProt Q2G2M2 1-840)
T1 construct: Presented on whole S. aureus cells (Protein A deletion mutant, delta spa; SA113 delta spa in the functional assays); also called MprF on S. aureus
T1 sequence: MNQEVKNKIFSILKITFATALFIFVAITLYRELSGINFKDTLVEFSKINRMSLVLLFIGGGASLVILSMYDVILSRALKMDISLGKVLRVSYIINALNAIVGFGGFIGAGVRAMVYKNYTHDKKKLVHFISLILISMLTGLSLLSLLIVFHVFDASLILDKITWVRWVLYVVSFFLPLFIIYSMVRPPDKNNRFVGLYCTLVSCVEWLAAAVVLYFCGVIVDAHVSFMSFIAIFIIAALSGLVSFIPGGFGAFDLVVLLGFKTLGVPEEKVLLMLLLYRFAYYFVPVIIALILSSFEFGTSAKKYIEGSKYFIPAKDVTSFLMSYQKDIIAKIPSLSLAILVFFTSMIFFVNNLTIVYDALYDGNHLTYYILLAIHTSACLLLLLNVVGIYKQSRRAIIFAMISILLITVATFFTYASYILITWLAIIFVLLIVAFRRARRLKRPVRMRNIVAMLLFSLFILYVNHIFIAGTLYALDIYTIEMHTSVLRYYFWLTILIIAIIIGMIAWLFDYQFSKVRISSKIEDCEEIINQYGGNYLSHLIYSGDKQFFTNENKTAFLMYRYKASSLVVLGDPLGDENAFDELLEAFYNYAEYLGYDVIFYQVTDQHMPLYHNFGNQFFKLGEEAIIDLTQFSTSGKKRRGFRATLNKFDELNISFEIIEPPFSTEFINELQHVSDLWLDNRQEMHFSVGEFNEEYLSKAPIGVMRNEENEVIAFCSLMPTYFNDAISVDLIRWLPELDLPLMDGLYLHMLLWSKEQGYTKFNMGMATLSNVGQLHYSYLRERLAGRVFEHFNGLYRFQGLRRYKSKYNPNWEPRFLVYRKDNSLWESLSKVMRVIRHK

T2: Linear peptide, loop 4 of MprF (Staphylococcus aureus, also: N-terminal Cys coupled to BSA or transferrin, called biotinylated legend)
T2 construct: coated as BSA or transferrin conjugate in the ELISA; also called linear loop 4 peptide
T2 peptide: CGLGFKTLGVPEEKV

T3: Linear peptide, loop 1 of MprF (Staphylococcus aureus, added N-terminal Cysteine coupled to carrier protein BSA or transferrin; FIG. 2 legend calls it biotinylated)
T3 construct: coated as BSA or transferrin conjugate in the ELISA; also called linear loop 1 peptide
T3 peptide: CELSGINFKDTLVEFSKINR


How the values were obtained:
[1] = target: T1, MprF protein of Staphylococcus aureus; assay: whole cell ELISA on S. aureus delta spa versus delta spa delta mprF
[2] = target: T1, MprF protein of Staphylococcus aureus; assay: whole cell ELISA on S. aureus; E. coli as negative control
[3] = target: T2, Linear peptide, loop 4 of MprF; assay: ELISA, IgG on the peptide used in its selection (Table 2)
[4] = target: T3, Linear peptide, loop 1 of MprF; assay: as above

Binder	binding result [2]	also measured
M-C5.1 (antibody, V domains shown, Framework VH1A kappa 1; also called M-05.1) VH: QVQLVQSGAEVKKPGSSVKVSCKASGGTFSSYAISWVRQAPGQGLEWMGGIVPIFGTANYAQKFQGRVTITADESTSTAYMELSSLRSEDTAVYYCARVRYGYWDVWGQGTLVTVSS VL: DIQMTQSPSSLSASVGDRVTITCRASQDIANWLNWYQQKPGKAPKLLIYAASSLQSGVPSRFSGSGSGTDFTLTISSLQPEDFATYYCQQYISLPITFGQGTKVEIKR		binding result [1]: binds
M-C6.1 (antibody, V domains shown, Framework VH1A kappa 1) VH: QVQLVQSGAEVKKPGSSVKVSCKASGGTFSIYAISWVRQAPGQGLEWMGGIIPEFGTANYAQKFQGRVTITADESTSTAYMELSSLRSEDTAVYYCARSQIYTLSYPKWFDFWGQGTLVTVSS VL: DIQMTQSPSSLSASVGDRVTITCRASQDISNYLNWYQQKPGKAPKLLIYDASNLQSGVPSRFSGSGSGTDFTLTISSLQPEDFATYYCLQYLQSPKTFGQGTKVEIKR	binds	
M-C4.2 (antibody, V domains shown, Framework VH3-23 kappa 1) VH: EVQLLESGGGLVQPGGSLRLSCAASGFTFSSYAMHWVRQAPGKGLEWVSVISSVGSSTYYADSVKGRFTISRDNSKNTLYLQMNSLRAEDTAVYYCARGGLDVWGQGTLVTVSS VL: DIQMTQSPSSLSASVGDRVTITCRASQDISKYLNWYQQKPGKAPKLLIYAASRLQSGVPSRFSGSGSGTDFTLTISSLQPEDFATYYCQQGDSTPFTFGQGTKVEIKR	binds	
M-L4 (antibody, V domains shown, Framework VH3-23 kappa 1) VH: EVQLLESGGGLVQPGGSLRLSCAASGFTFRSYAMSWVRQAPGKGLEWVSIISYDGSSTYYADSVKGRFTISRDNSKNTLYLQMNSLRAEDTAVYYCARTATSGSRGYFDYWGQGTLVTVSS VL: DIQMTQSPSSLSASVGDRVTITCRASQDISSWLNWYQQKPGKAPKLLIFGASTLQSGVPSRFSGSGSGTDFTLTISSLQPEDFATYYCQQHYTSPVTFGQGTKVEIKR	binds	binding result [3]: binds
M-C6.2 (antibody, V domains shown, Framework VH1A kappa 1) VH: QVQLVQSGAEVKKPGSSVKVSCKASGGTFSSYAISWVRQAPGQGLEWMGGIIPILGIANYAQKFQGRVTITADESTSTAYMELSSLRSEDTAVYYCARSLPYRSDLYGFSRWSYHRVGMDVWGQGTLVTVSS VL: DIQMTQSPSSLSASVGDRVTITCRASQDISNTLNWYQQKPGKAPKLLIYAASTLQSGVPSRFSGSGSGTDFTLTISSLQPEDFATYYCQQVGSFPYTFGQGTKVEIKR	binds	
M-C1 (antibody, V domains shown, Framework VH3-23 kappa 3) VH: EVQLLESGGGLVQPGGSLRLSCAASGFTFSSYAMNWVRQAPGKGLEWVSVISSDGSDTYYADSVKGRFTISRDNSKNTLYLQMNSLRAEDTAVYYCARESYYIGWDYWGQGTLVTVSS VL: DIVLTQSPATLSLSPGERATLSCRASQRVSSSFLAWYQQKPGQAPRLLIYLASNRATGIPARFSGSGSGTDFTLTISSLEPEDFAVYYCLQYGHYPPTFGQGTKVEIKR	binds	
M-C4.5 (antibody, V domains shown, Selected from the MorphoSys Ylanthia library; framework VH6-1) VH: QVQLQQSGPGLVKPSQTLSLTCAISGDSVSSNSAAWNWIRQSPSRGLEWLGRTYYRSKWYNDYAVSVKSRITINPDTSKNQFSLQLNSVTPEDTAVYYCARSAEPSYAYYHGFDYWGQGTLVTVSS VL: DIQLTQSPSFLSASVGDRVTITCRASQGISSYLAWYQQKPGKAPKLLIYAASTLQSGVPSRFSGSGSGTEFTLTISSLQPEDFATYYCQQRIIFPQTFGQGTKVEIKR	binds	
M-C5.2 (antibody, V domains shown, Framework VH3-23 kappa 1; also called M-05.2) VH: EVQLLESGGGLVQPGGSLRLSCAASGFTFSSYAVHWVRQAPGKGLEWVSVISGRGGSTYYADSVKGRFTISRDNSKNTLYLQMNSLRAEDTAVYYCARDHGYFDYWGQGTLVTVSS VL: DIQMTQSPSSLSASVGDRVTITCRASQTISNHLGWYQQKPGKAPKLLIYTASNLQSGVPSRFSGSGSGTDFTLTISSLQPEDFATYYCQQYSHSSYTFGQGTKVEIKR	binds	
M-L1 (antibody, V domains shown, Framework VH1A kappa 3) VH: QVQLVQSGAEVKKPGSSVKVSCKASGGTFNSYAIHWVRQAPGQGLEWMGGIIPIFGIANYAQKFQGRVTITADESTSTAYMELSSLRSEDTAVYYCARDQYTYDYYRAFDYWGQGTLVTVSS VL: DIVLTQSPATLSLSPGERATLSCRASQSVRDNLAWYQQKPGQAPRLLIYGASNRATGIPARFSGSGSGTDFTLTISSLEPEDFAVYYCQQYDHSPRTFGQGTKVEIKR		binding result [4]: binds; binding result [1]: binds
M-C4.3 (antibody, V domains shown, Framework VH1A kappa 1) VH: QVQLVQSGAEVKKPGSSVKVSCKASGGTFSDHTISWVRQAPGQGLEWMGGIIPIVGIANYAQKFQGRVTITADESTSTAYMELSSLRSEDTAVYYCAREYYVPDSGWFDYWGQGTLVTVSS VL: DIQMTQSPSSLSASVGDRVTITCRASQDISDYLVWYQQKPGKAPKLLIYDASNLQSGVPSRFSGSGSGTDFTLTISSLQPEDFATYYCQQYYHYRTFGQGTKVEIKR	binds	
